We go through 26 molecules from patent EP1516629B1.

Numbering of substitutions follows the chain as printed. Names and notes keep the numbering of the source.

In one test the target is T1, human CD11a (human) (UniProt P20701).
T1 sequence (looked up): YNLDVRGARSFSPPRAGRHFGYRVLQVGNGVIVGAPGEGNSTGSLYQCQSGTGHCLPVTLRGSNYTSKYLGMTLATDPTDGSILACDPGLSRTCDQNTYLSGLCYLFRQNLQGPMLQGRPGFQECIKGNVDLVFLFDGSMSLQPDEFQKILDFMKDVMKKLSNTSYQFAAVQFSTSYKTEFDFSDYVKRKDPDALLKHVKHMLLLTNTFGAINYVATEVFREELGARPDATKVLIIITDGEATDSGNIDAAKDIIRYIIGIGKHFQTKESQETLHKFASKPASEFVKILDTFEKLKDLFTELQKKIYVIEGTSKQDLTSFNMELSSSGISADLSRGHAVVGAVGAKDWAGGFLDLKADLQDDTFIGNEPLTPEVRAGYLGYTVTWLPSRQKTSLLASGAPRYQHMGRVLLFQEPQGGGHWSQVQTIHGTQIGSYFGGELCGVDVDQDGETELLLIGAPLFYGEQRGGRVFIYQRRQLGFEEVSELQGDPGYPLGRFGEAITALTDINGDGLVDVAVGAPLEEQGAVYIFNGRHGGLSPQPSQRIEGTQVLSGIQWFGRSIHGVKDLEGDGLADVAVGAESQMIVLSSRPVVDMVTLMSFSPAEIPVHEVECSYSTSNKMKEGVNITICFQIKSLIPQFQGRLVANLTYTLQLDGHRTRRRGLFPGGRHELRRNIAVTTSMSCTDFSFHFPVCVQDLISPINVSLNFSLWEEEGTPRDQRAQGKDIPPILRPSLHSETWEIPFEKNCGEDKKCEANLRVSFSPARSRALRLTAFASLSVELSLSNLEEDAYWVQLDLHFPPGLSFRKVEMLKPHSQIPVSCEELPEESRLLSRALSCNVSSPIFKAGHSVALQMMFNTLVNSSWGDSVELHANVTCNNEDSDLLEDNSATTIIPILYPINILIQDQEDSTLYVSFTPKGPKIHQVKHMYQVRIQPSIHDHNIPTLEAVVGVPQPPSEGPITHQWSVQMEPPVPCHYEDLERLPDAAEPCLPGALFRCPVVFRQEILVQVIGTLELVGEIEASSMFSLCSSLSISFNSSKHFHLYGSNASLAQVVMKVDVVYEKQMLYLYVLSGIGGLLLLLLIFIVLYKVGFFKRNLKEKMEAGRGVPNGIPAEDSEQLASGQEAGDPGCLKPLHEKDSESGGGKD
Description: FACScan, Jurkat cells.

The target in a further test is T2, rhesus CD11a (rhesus) (UniProt H9Z8N3).
T2 sequence: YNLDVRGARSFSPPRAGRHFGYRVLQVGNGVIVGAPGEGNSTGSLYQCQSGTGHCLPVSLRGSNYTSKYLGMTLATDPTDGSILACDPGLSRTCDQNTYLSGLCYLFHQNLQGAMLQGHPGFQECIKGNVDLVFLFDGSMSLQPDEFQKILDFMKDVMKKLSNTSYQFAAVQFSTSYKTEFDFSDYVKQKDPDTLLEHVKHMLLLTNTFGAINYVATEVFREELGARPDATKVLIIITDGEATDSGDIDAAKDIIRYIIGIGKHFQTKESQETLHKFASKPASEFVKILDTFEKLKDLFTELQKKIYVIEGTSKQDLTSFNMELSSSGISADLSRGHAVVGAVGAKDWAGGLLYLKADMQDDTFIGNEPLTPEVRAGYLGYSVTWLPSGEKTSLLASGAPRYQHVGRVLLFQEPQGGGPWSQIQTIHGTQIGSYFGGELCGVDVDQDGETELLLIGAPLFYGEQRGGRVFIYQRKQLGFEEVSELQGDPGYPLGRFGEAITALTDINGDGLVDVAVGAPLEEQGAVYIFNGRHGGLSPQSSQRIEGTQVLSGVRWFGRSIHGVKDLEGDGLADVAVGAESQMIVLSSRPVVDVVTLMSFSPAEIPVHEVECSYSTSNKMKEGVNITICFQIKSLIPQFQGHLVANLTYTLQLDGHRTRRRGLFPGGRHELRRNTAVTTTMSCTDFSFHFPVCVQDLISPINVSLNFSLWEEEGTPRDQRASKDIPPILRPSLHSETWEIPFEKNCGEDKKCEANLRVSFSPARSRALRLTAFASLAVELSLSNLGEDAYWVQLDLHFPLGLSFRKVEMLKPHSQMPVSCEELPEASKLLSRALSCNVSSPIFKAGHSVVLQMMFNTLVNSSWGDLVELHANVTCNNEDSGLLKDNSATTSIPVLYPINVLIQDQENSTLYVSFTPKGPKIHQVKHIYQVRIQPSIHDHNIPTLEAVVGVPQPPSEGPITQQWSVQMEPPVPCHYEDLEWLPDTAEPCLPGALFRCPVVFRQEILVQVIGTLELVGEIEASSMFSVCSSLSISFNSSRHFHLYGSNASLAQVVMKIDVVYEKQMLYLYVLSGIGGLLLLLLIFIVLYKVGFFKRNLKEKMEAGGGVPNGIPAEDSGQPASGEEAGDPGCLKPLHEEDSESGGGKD
Description: binding to rhesus peripheral blood lymphocytes.

B1: L1 variant IgG1 (antibody, V domains shown)
VH: EVQLVESGGGLVQPGGSLRLSCAASGYSFTGHWMNWVRQAPGKGLEWVGMIHPSDSETRYNQKFKDRFTISVDKSKNTLYLQMNSLRAEDTAVYYCARGIYFYGTTYFDYWGQGTLVTVSS
VL: DIQMTQSPSSLSASVGDRVTITCRASAAIAAYLAWYQQKPGKAPKLLIYSGSTLQSGVPSRFSGSGSGTDFTLTISSLQPEDFATYYCQQHNEYPLTFGQGTKVEIKR
As to B1, the Var.EC50/HuIgG1 EC50 with human CD11a (human) was found to be 1.3; in the test with rhesus CD11a (rhesus) it was 1.

B2: H2C14 variant IgG1 (antibody, V domains shown)
VH: B1 VH with H52A, S54A, D55S, E57A
VL: DIQMTQSPSSLSASVGDRVTITCRASKTISKYLAWYQQKPGKAPKLLIYSGSTLQSGVPSRFSGSGSGTDFTLTISSLQPEDFATYYCQQHNEYPLTFGQGTKVEIK
In turn, B2 had a Var.EC50/HuIgG1 EC50 with rhesus CD11a (rhesus) of 0.021.

B3: TyrL94Ala variant IgG1 (antibody, V domains shown)
VH: B1 VH
VL: B1 VL with A27K, A28T, A30S, A31K, Y94A
Molecule B3 had a Var.EC50/HuIgG1 EC50 with human CD11a (human) of 11.8.

B4: LysH73Ala variant IgG1 (antibody, V domains shown)
VH: B1 VH with K74A
VL: B2 VL
B4 displayed a Var.EC50/HuIgG1 EC50 with human CD11a (human) of 5.2.

B5: TyrH99Ala variant IgG1 (antibody, V domains shown)
VH: B1 VH with Y103A
VL: B2 VL
B5 had a Var.EC50/HuIgG1 EC50 with human CD11a (human) of 1.4.

B6: SerH28Ala variant IgG1 (antibody, V domains shown)
VH: B1 VH with S28A
VL: B2 VL
With B6, the Var.EC50/HuIgG1 EC50 in the test with human CD11a (human) was determined as 6.9.

B7: H2C4 variant IgG1 (antibody, V domains shown)
VH: B1 VH with H52A, S54A, D55N, E57A
VL: B2 VL
B7 came in with a Var.EC50/HuIgG1 EC50 with rhesus CD11a (rhesus) of 0.38.

B8: H1 variant IgG1 (antibody, V domains shown)
VH: B1 VH with S28A, T30A, H32A
VL: B2 VL
Turning to B8, the Var.EC50/HuIgG1 EC50 with human CD11a (human) came to 5.9.

B9: HisH32Ala variant IgG1 (antibody, V domains shown)
VH: B1 VH with H32A
VL: B2 VL
With B9, the Var.EC50/HuIgG1 EC50 with human CD11a (human) stood at 2.3.

B10: H2C6 variant IgG1 (antibody, V domains shown)
VH: B1 VH with H52A, S54A, D55N, E57Q
VL: B2 VL
On to B10, for which, in the test with rhesus CD11a (rhesus), the Var.EC50/HuIgG1 EC50 came to 0.21.

B11: TyrH100cAla variant IgG1 (antibody, V domains shown)
VH: B1 VH with Y107A
VL: B2 VL
As to B11, in the test with human CD11a (human), the Var.EC50/HuIgG1 EC50 is 7.6.

B12: L2 variant IgG1 (antibody, V domains shown)
VH: B1 VH
VL: B1 VL with A27K, A28T, A30S, A31K, S50A, S52A, T53A
In the case of B12, the Var.EC50/HuIgG1 EC50 in the test with human CD11a (human) came out at 1.1.

B13: ThrH100bAla variant IgG1 (antibody, V domains shown)
VH: B1 VH with T106A
VL: B2 VL
For the molecule B13, the Var.EC50/HuIgG1 EC50 with human CD11a (human) was found to be 1.4.

B14: humanized MHM24 F(ab)-8 (Fab, V domains shown)
VH: B1 VH
VL: B1 VL with A27K, A28T, A30S, A31K
In the test with human CD11a (human), B14 came in with an EC50 F(ab)/EC50 F(ab)-2 of 0.004.

B15: humanized MHM24 F(ab)-3 (Fab, V domains shown)
VH: B1 VH with Y27F, F68A, K74N
VL: B2 VL with T53S, Q55E
In the test with human CD11a (human), B15 came in with an EC50 F(ab)/EC50 F(ab)-2 of 1.2.

B16: HisH52Ser variant IgG1 (antibody, V domains shown)
VH: B1 VH with H52S
VL: B2 VL
B16 registered a Var.EC50/HuIgG1 EC50 in the test with human CD11a (human) of 5.

B17: humanized MHM24 F(ab)-4 (Fab, V domains shown)
VH: B1 VH with Y27F, V72R, K74N
VL: B2 VL with T53S, Q55E
B17: in the test with human CD11a (human), the EC50 F(ab)/EC50 F(ab)-2 was 2.9 and the fold reduction in binding against F(ab)-2 was found to be 3 fold.

B18: SerH55Asn variant IgG1 (antibody, V domains shown)
VH: B1 VH with S56N
VL: B2 VL
The molecule B18 displayed a Var.EC50/HuIgG1 EC50 in the test with human CD11a (human) of 2.1.

B19: AspH54Lys variant IgG1 (antibody, V domains shown)
VH: B1 VH with D55K
VL: B2 VL
In the test with rhesus CD11a (rhesus), B19 displayed a Variant EC50/HulgG1 EC50 of 3.8.

B20: H2C11 variant IgG1 (antibody, V domains shown)
VH: B1 VH with H52A, S54A, D55S, E57N
VL: B2 VL
As to B20, the Var.EC50/HuIgG1 EC50 in the test with human CD11a (human) came out at 24.9.

B21: AspH54Glu variant IgG1 (antibody, V domains shown)
VH: B1 VH with D55E
VL: B2 VL
Turning to B21, in the test with human CD11a (human), the Variant EC50/HulgG1 EC50 is 16.

B22: TyrH97Ala variant IgG1 (antibody, V domains shown)
VH: B1 VH with Y101A
VL: B2 VL
In the test with human CD11a (human), B22 registered a Var.EC50/HuIgG1 EC50 of 10.9.

B23: AspH54Ser variant IgG1 (antibody, V domains shown)
VH: B1 VH with D55S
VL: B2 VL
Regarding B23, in the test with rhesus CD11a (rhesus), the Variant EC50/HulgG1 EC50 is 0.9.

B24: H3B variant IgG1 (antibody, V domains shown)
VH: B1 VH with T105A, T106A, Y107A
VL: B2 VL
Molecule B24 yielded a Var.EC50/HuIgG1 EC50 with human CD11a (human) of 34.7.

B25: ThrH100aAla variant IgG1 (antibody, V domains shown)
VH: B1 VH with T105A
VL: B2 VL
In the test with human CD11a (human), B25 registered a Var.EC50/HuIgG1 EC50 of 2.3.

B26: humanized MHM24 F(ab)-5 (Fab, V domains shown)
VH: B1 VH with Y27F, K76S, N77S
VL: B2 VL with T53S, Q55E
Take B26: in the test with human CD11a (human), the EC50 F(ab)/EC50 F(ab)-2 was 0.043 and the fold improvement in binding over F(ab)-2 was 23 fold.
